# Where two headings read alike, the source gives them in different places.
# What was measured:
# [1] = target: ^FSClpX (TAMRA-labelled single-chain E. coli ^C169SClpX^ΔN pseudohexamer) (E. coli); assay: other fluorescence titration
# [2] = target: ^FSClpX (TAMRA-labelled single-chain E. coli ^C169SClpX^ΔN pseudohexamer) (E. coli); assay: other fluorescence titration; remark: listed apart in the source
# [3] = target: ^FSClpXP (^FSClpX with ClpP) (E. coli) (UniProt P0A6G7); assay: other fluorescence titration
# Chain of UniProt P0A6G7 (P0A6G7 whole entry, looked up): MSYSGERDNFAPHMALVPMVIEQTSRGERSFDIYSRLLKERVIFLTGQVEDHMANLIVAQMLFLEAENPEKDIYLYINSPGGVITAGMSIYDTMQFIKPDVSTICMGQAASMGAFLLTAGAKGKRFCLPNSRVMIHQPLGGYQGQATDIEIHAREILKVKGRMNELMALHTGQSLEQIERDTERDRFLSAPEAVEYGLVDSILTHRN
# [4] = target: ^FSClpXP (^FSClpX with ClpP) (E. coli) (UniProt P0A6G7); assay: stopped-flow fluorescence quenching
# [5] = target: ^FSClpXP (^FSClpX with ClpP) (E. coli) (UniProt P0A6G7); assay: stopped-flow fluorescence quenching; remark: listed apart in the source
# [6] = target: ^FSClpXP (^FSClpX with ClpP) (E. coli) (UniProt P0A6G7); assay: other fluorescence titration; remark: listed apart in the source
Substance,Kd [1] [nM],Kd [2] [nM],Kd [3] [nM],"time constant of dissociation, fast phase [4] [s]","time constant of dissociation, slow phase [4] [s]","time constant of dissociation, fast phase [5] [s]","time constant of dissociation, slow phase [5] [s]",Kd [6] [nM]
^UFtitin-BQ-ssrA (titin-BQ-ssrA unfolded by carboxymethylation of otherwise-buried cysteines) (domain or fragment),90,550,–,–,–,–,–,–
titin-BQ-ssrA (ssrA-tagged I27 domain of human titin labelled with the BHQ-10 quencher) (domain or fragment),59,110,30 to 100,3,50,2,240,60
